Measurements reported in patent US12233115B2, “Long-acting parathyroid hormone” (Extend Biosciences, Inc., priority 2022, dated 2025).
Like-named read-outs stand apart in the source and are kept apart here.

What was measured:
DBP = molecular target: T1, DBP (Homo sapiens, UniProt P02774); details: Norman et al. 2001, p. 51; cited from earlier work
T1 sequence (P02774 17-474): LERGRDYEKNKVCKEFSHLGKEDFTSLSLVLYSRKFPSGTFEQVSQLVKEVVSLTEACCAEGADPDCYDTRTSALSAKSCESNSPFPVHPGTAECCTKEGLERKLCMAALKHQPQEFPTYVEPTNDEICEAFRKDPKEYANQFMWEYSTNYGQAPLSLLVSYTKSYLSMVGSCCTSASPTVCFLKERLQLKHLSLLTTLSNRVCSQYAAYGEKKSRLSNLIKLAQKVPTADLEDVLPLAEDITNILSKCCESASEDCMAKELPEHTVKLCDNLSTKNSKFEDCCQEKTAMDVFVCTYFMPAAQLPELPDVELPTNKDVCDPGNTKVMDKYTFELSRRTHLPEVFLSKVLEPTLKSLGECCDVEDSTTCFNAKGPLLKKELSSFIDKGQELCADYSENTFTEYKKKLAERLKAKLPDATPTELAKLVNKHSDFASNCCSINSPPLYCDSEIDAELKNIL

VDRnuc = details: Norman et al. 2001, p. 51; cited from earlier work
Solubility in PBS (A280) = format: physicochemical
Procedure: PEG Length and Counterion Affects Solubility: The solubility of the acetate and carbonate salt form of each compound was determined as follows. For EXT611, EXT606, and EXT608, phosphate buffered saline (PBS) was added to each compound to form a saturated solution. Undissolved compound was removed by centrifugation. The concentration of dissolved compound was determined by measuring the absorbance at 280 nm using an extinction coefficient of 18,600 M^−1 cm^−1. For EXT615, EXT616, and EXT617, solubility was limited practically by the high viscosity imparted by the large PEG moieties. Highly viscous drug formulations are difficult to manipulate and require large needle bore sizes that cause increased injection site pain. PBS was added to EXT615, EXT616, and EXT617 incrementally until a solution was obtained that could be successfully pipetted through a pipet tip with a bore of approximately 1 mm diameter (enlarged by removing the end with a razor blade). The concentration of dissolved compound was determined by measuring the absorbance at 280 nm using an extinction coefficient of 18,600 M^−1 cm^−1. […] For EXT608, the acetate salt was 17.6-fold more soluble than the carbonate salt.

[1] = human, in vivo, cited from earlier work

25-hydroxyvitamin D [25(OH)D3]
fold tighter binding to DBP than 1α,25(OH)2D3 (DBP): 668 fold

C=C1/C(=C\C=C2/CCC[C@]3(C)[C@@H]([C@H](C)CCCC(C)(C)O)CC[C@@H]23)C[C@@H](O)C[C@@H]1O [1α,25(OH)2D3, 1,25-dihydroxyvitamin D3]
fold tighter binding to VDRnuc than 25(OH)D3 (VDRnuc): 668 fold

C=C1CC[C@H](OCCCNC(=O)CCOCCOCCOCCOCCOCCOCCOCCOCCOCCOCCOCCOCCOCCOCCOCCOCCOCCOCCOCCOCCOCCOCCOCCOCCNC(=O)CCN2C(=O)CC(SC[C@H](NC(=O)[C@H](Cc3ccccc3)NC(=O)[C@H](CC(N)=O)NC(=O)[C@H](Cc3c[nH]cn3)NC(=O)[C@@H](NC(=O)[C@H](CC(=O)O)NC(=O)[C@H](CCC(N)=O)NC(=O)[C@H](CC(C)C)NC(=O)[C@H](CCCCN)NC(=O)[C@H](CCCCN)NC(=O)[C@H](CCCNC(=N)N)NC(=O)[C@H](CC(C)C)NC(=O)[C@H](Cc3c[nH]c4ccccc34)NC(=O)[C@H](CCC(=O)O)NC(=O)[C@@H](NC(=O)[C@H](CCCNC(=N)N)NC(=O)[C@H](CCC(=O)O)NC(=O)[C@H](CCSC)NC(=O)[C@H](CO)NC(=O)[C@H](CC(N)=O)NC(=O)[C@H](CC(C)C)NC(=O)[C@H](Cc3c[nH]cn3)NC(=O)[C@H](CCCCN)NC(=O)CNC(=O)[C@H](CC(C)C)NC(=O)[C@H](CC(N)=O)NC(=O)[C@H](Cc3c[nH]cn3)NC(=O)[C@H](CCSC)NC(=O)[C@H](CC(C)C)NC(=O)[C@H](CCC(N)=O)NC(=O)[C@@H](NC(=O)[C@H](CCC(=O)O)NC(=O)[C@H](CO)NC(=O)[C@@H](NC(=O)[C@@H](N)CO)C(C)C)[C@@H](C)CC)C(C)C)C(C)C)C(N)=O)C2=O)C/C1=C/C=C1\CCC[C@]2(C)[C@@H]([C@H](C)CCCC(C)(C)O)CC[C@@H]12 (some centres unmarked) [EXT606]
solubility (Solubility in PBS (A280); acetate salt, read-out: Solubility as Acetate): 907 µM
solubility (Solubility in PBS (A280); carbonate salt, read-out: Solubility as Carbonate): 200 µM

PTH: Parathyroid hormone, polypeptide containing 84 amino acids (SEQ ID NO:2); literature half-life values
plasma half-life ([1]; iv): less than 15 minutes
serum half-life ([1]; iv): approximately 5 minutes
apparent half-life ([1]; sc): 1.5 to 2.5 h
plasma half-life (estimated) ([1]; sc): 2 to 3 h
